Data from patent US20130004981A1, “SYSTEM AND METHOD FOR SELECTING MOLECULE INTERACTING WITH PROTEIN PHOSPHATASE” (priority 2011, published 2013).

What was measured:
[1] = target: T1, PP2A subunits B56γ3, Aα and Cα (Homo sapiens, UniProt P30153+P67775); assay: BiFC-based FRET fluorescence of PP2A holoenzyme assembly (YFPN-B56γ3+YFPC-Aα+CFP-Cα) in transfected NIH3T3 cells; assay type: cell-based; conditions: NIH3T3 cells co-transfected with YFPN-B56γ3+YFPC-Aα+CFP-Cα plus test plasmid; FIG. 3
T1 construct: HA; Flag; expressed in transfected cells; host or cells: NIH3T3 (mouse embryonic fibroblast cell line)
T1 sequence (P30153 whole entry): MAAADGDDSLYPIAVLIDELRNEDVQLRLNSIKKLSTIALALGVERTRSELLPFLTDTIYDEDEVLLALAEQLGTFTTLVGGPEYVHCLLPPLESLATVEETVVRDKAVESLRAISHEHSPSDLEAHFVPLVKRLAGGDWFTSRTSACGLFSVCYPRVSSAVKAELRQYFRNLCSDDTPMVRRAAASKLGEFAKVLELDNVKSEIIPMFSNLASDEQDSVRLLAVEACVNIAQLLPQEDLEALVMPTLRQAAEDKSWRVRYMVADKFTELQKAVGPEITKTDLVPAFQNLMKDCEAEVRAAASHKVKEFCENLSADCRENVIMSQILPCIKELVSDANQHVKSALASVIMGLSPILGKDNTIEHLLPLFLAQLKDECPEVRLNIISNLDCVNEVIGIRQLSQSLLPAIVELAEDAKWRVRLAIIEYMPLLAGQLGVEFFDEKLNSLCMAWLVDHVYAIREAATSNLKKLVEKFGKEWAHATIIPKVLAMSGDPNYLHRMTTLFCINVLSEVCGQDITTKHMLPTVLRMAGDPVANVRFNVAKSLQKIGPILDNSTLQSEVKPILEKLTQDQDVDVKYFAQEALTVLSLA
T1 sequence (P67775 whole entry): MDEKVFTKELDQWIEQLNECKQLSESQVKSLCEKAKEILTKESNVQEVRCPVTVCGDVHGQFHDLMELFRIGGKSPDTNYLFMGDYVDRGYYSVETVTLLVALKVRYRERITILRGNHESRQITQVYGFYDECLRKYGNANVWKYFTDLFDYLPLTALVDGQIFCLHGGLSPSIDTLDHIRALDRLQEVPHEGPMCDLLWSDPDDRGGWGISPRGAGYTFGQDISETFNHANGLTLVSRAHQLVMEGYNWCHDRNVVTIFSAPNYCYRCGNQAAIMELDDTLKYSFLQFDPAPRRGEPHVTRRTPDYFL
Procedure: (§1) In the following embodiments of the present invention, NIH3T3 cells (mouse embryonic fibroblast cell line) was used, which was cultured in Dulbecco's modified Eagle's medium (DMEM) supplemented with 10% bovine serum (BS), 1% Penicillin (10 U/μl)/Streptomycin (10 μg/μl), and 1% L-Glutamine (200 mM). All of the reagents were available from GIBCO.
(§2) NIH3T3 cells were seeded into proper dishes one day before transfection. For example, 7×10^4 cells were seeded in each well of a 24-well plate; 10^6 cells were seeded in a 6 cm dish; and 3×10^6 cells were seeded in a 10 cm dish. […]
(§3) After 24 hrs, cells were washed with PBS buffer three times and fixed by 4% paraformaldehyde/0.025% glutaraldehyde for 15 ruin. […] The cells were observed by fluorescence microscopy (Zeiss, Axio observer Z1). […]
(§4) In the present embodiment, the plasmids of the following experimental groups were transfected into NIH3T3 cells with the aforementioned transfection process, and the cover glasses used in the present embodiment were prepared with the same process described in Embodiment 1. The cells were observed by fluorescence microscopy (Zeiss, Axio observer Z1), and the fluorescence and fluorescent efficiency generated from cells were programmed by Zeiss AxioVision complied with Youvan's method. […]

[2] = target: T2, PP2A subunits Aα, Cα and B55β2 (Homo sapiens, UniProt P30153+P67775); assay: BiFC-based FRET fluorescence of PP2A holoenzyme assembly (YFPN-Aα+Cα-YFPC+B55β2-CFP) in transfected NIH3T3 cells; assay type: cell-based; conditions: NIH3T3 cells co-transfected with YFPN-Aα+Cα-YFPC+B55β2-CFP plus test plasmid; FIG. 4
T2 construct: FLAG; HA (N); Flag; expressed in transfected cells; host or cells: NIH3T3 (mouse embryonic fibroblast cell line)
T2 sequence (P30153 whole entry): as the sequence (P30153 whole entry) above
T2 sequence (P67775 whole entry): as the sequence (P67775 whole entry) above
Procedure: as §1, §2, §3, §4

B1: ST: small T (SV40 small T antigen) expressed from pCMV5; may influence the association between the scaffold subunit and the regulatory subunit (protein, UniProt P03081 1-174, looked up)
Small t antigen: MDKVLNREESLQLMDLLGLERSAWGNIPLMRKAYLKKCKEFHPDKGGDEEKMKKMNTLYKKMEDGVKYAHQPDFGGFWDATEVFASSLNPGVDAMYCKQWPECAKKMSANCICLLCLLRMKHENRKLYRKDPLVWVDCYCFDCFRMWFGLDLCEGTLLLWCDIIGQTTYRDLKL
[1]
  fluorescence generated from cells (association between subunits A and B): did not generate any fluorescence
[2]
  fluorescence and efficiency generated from cells (association between subunits A and B): only generated weak fluorescence and efficiency
